These results are taken from patent US20190153113A1, “CD39 VASCULAR ISOFORM TARGETING AGENTS” (INNATE PHARMA, priority 2015, published 2019).

One data set deals with T1, CD39-L2 (Homo sapiens, UniProt O75354, K202E).
T1 sequence (O75354 1-484 K202E): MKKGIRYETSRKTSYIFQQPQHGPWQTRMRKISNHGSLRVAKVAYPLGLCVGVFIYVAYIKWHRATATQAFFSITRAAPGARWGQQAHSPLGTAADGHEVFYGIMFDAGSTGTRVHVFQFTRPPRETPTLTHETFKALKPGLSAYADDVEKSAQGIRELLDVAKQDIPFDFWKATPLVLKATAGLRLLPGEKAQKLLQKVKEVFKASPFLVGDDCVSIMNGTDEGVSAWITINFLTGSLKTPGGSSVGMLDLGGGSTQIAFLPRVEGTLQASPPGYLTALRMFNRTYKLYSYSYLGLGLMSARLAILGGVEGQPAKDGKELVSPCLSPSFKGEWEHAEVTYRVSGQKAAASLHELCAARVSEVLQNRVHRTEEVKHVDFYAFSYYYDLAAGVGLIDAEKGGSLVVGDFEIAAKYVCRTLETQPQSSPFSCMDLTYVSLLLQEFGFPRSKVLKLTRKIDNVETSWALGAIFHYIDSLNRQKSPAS
The experiment in a line: ELISA titration on recombinant human CD39 isoforms. In kind it is binding. Conditions: recombinant protein coated. As for the experimental part:
(§1) Wells were washed in TBS Tween 20, and further saturated 2H at RT in TBS Blocking buffer. Dose range concentration of primary antibody was incubated in TBS blocking buffer for 2h at RT. Wells were washed in TBS Tween 20. […] Optical density was measured on Enspire at OD=450.
On the technique in general: ELISA stands for enzyme-linked immunosorbent assay.

The next data set addresses T2, CD39-L3 (Homo sapiens, UniProt O75355).
T2 sequence (O75355 1-529): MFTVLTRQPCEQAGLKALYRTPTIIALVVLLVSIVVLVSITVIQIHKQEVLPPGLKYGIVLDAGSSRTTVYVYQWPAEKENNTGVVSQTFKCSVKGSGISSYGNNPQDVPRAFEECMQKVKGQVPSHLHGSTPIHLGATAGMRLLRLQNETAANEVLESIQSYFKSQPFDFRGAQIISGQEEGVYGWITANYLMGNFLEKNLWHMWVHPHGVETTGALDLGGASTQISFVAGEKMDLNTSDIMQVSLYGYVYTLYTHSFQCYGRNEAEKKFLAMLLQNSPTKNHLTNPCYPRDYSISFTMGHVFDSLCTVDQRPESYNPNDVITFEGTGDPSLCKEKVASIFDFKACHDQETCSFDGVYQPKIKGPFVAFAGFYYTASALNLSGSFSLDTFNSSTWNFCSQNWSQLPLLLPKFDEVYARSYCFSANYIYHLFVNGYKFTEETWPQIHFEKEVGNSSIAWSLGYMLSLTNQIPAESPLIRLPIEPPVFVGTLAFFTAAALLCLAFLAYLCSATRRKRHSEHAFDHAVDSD
The experiment in a line: ELISA titration on recombinant human CD39 isoforms. In kind it is binding. The settings on record: recombinant protein coated. As for the experimental part: as §1

The target of a further data set is T3, CD39-L4 (Homo sapiens, UniProt O75356).
T3 sequence (O75356 25-428): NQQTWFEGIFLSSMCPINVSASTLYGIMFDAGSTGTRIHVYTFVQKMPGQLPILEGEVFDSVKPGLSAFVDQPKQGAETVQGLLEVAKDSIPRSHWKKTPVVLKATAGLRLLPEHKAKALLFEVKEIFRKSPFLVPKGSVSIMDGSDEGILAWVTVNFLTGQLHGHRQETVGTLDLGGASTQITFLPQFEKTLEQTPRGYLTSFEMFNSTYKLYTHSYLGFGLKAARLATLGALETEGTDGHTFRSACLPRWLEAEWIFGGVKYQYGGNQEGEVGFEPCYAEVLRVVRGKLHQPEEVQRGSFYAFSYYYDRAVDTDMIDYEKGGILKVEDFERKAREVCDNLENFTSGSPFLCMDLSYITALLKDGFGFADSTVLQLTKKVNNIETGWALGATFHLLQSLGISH
The experiment in a line: ELISA titration on recombinant human CD39 isoforms. In kind it is binding. Conditions: recombinant protein coated. As for the experimental part:
as §1

In the next data set the target is T4, vascular CD39 (Homo sapiens, UniProt P49961).
T4 construct: recombinant human CD39-M2 extracellular domain recombinant protein; made in house; host or cells: CHO cells (secreted, purified from supernatant)
T4 sequence (P49961 38-478 limits assumed): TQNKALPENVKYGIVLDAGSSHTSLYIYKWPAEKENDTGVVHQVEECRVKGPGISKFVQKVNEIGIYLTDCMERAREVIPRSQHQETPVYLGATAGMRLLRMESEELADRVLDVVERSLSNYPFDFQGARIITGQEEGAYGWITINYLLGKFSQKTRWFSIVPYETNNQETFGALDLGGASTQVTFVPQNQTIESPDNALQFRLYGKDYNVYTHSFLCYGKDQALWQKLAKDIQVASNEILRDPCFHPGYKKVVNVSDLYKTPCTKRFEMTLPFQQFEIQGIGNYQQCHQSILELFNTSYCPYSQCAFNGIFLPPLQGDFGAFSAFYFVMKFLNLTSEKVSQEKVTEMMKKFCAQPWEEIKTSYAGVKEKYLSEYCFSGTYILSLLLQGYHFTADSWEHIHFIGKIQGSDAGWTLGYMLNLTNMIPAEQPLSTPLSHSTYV
The experiment in a line: ELISA titration on recombinant human CD39 isoforms. In kind it is binding. Conditions: recombinant protein coated. As for the experimental part: as §1

The nature of data set [1]: Stability in reference formulation, thermal shift stability assay (aggregation temperature). The settings on record: in words. In kind it is physicochemical. As for the experimental part:
All antibodies were tested for stability in the following reference formulation at a concentration of approximatively 7 mg/mL: pH 6.0; histidine buffer (10 mM); sucrose (200 mM); NaCl (50 mM); Polysorbate 80 (PS80) (0.2 g/L). […] So for this study the concentration is set at 0.2 g/L.
The stability of the formulations was monitored in two storage conditions (at +5° C.±3° C. and at +40±3° C. For each study, 3 times point were performed: TO, T15D (15 days) and T1M (1 month). A freeze thaw (F/T) and a thermal shift stability assay (TSSA) were conducted for the format comparison. To perform F/T cycles, the samples were frozen at least 2 hours at −20° C. and thawed at least 1 hour at room temperature, the F/T cycle is repeated three times and samples are tested 24h after the last Freeze/Thaw cycle. At each time point, the following tests were performed: • Particulate Matter (MFI) • Visual Inspection (Appearance) • Impurities (SE-HPLC) • Turbidity (400 nm) • Protein Concentration (280 nm) (performed with Nanodrop, Thermo Fisher Scientific Inc.)
Aggregation temperature is correlated with the intrinsic stability. The higher the TAgg, the higher the stability of the protein. […]

B1: I-392: anti-CD39 antibody, VH SEQ ID NO: 8 and VL SEQ ID NO: 9, chimeric human IgG1 with N297Q mutation (antibody, V domains shown)
VH: QIQLVQSGPEVKKPRETVKISCKASGYTFTHYGMNWVKQAPGKGLKWMGWINTYTGEPTYADDFKGRFAFSLEASASTAYLQINNLKNEDTATYFCARRRYEGNYVFYYFDYWGQGTTLTVSS
VL: DIQMTQSPASLSASVGETVTITCRASENIYSYFSWYQQKQGKSPQLLVYTAKTLAEGVPSRFSGSGSGTQFSLKINSLQPEDFGSYYCQHHYVTPYTFGGGTKLEIK
Regarding B1, the “binding to CD39-L2” value in the data set with CD39-L2 is “not to any of the CD39 isoforms”. In the data set with CD39-L3, the “binding to CD39-L3” value is reported as “not to any of the CD39 isoforms”. In addition, in the data set with CD39-L4, the “binding to CD39-L4” value is given as “not to any of the CD39 isoforms”. The “binding to vascular CD39” value with vascular CD39 was “bound to the vascular CD39”. The “stability (aggregation)” value in data set [1] is recorded as “relatively low inherent stability”.
